# Measurements published in patent US20210063414A1, “METHODS FOR PREVENTING AND/OR TREATING BONE LOSS CONDITIONS BY MODULATING IRISIN” (Dana-Farber Cancer Institute, Inc., priority 2018, published 2021).
# T1: MLO-Y4 cell surface proteins (Mus musculus, UniProt Q9CY64)
# T1 construct: endogenous in cells; host or cells: MLO-Y4
# T1 sequence (Q9CY64 3-295): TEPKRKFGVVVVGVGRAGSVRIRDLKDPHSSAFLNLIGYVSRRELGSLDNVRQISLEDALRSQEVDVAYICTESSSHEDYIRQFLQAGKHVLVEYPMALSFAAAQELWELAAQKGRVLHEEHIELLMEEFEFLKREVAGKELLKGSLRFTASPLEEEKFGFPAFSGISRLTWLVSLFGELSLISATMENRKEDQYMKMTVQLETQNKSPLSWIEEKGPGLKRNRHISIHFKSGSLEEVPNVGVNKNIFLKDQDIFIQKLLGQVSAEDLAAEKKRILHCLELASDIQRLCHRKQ
# B1: irisin: secreted cleaved form of FNDC5; recombinant human/mouse irisin with C-terminal his tag produced in HEK293 cells (protein)
# chain: DSPSAPVNVTVRHLKANSAVVSWDVLEDEVVIGFAISQQKKDVRMLRFIQEVNTTTRSCALWDLEEDTEYIVHVQAISIQGQSPASEPVLFKTPREAEKMASKNKDEVTMKE
# modifications: left off: small tags and cut ends
# notes: secreted cleaved form of FNDC5; recombinant human/mouse irisin with C-terminal his tag produced in HEK293 cells
# Key:
# [1] = biological target: T1, MLO-Y4 cell surface proteins; assay: Crosslinking/co-immunoprecipitation/mass spectrometry (TMT quantitative proteomics) to identify irisin receptors; type: binding; settings: co-precipitated protein Blvra (BIEA_MOUSE)
# Protocol: (§1) MLO-Y4 cells were seeded on 30×150 mm type-I collagen coated dishes as described in cell culture experiment. At 60% cell density, medium was switched to FreeStyle™ 293 Expression medium. After 4 hours incubation, the cells were chilled on ice for 10 minutes, followed by treatment of 10 nM his-tag irisin or his-tag adipsin for 20 minutes. The cells were then incubated with 1.5 mM DTSSP for 30 minutes on ice to do cross-linking, after washing with 15 ml cold PBS twice. The cross-linking was quenched by addition of a final concentration of 20 mM Tris-pH 7.5. The cells were then harvested and homogenized in 1 ml RIPA buffer containing proteaseinhibitor cocktailand phosphatase-inhibitor cocktail. Whole-cell lysates were homogenized by 10 times passages through a 22G needle fitted to a 3 ml syringe. Homogenized samples were rotated gently in cold room for 20 minutes followed by 15,000×g centrifugation for 10 minutes. After addition of a final concentration of 10 mM imidazole, supernatants were incubated with 100 μl Ni-NTA agarose for 1 hour. After centrifugation at 500×g for 1 minute, the supernatants were aspirated and 1 ml cold RIPA buffer containing 10 mM imidazole were added to the agarose. After 10 minutes rotation in cold room, the supernatants were aspirated and 1 ml cold RIPA buffer containing 30 mM imidazole were added to the agarose. After repeating the washing 3 times, 0.8 ml RIPA buffer containing 250 mM imidazole was added and the agarose was gently rotated in a cold room for 20 minutes. After centrifugation at 1000×g for 2 minutes, the supernatants were transferred to 1.5 ml tube and incubated with 100 μl 0.2% sodium deoxycholate and 100 μl 10% trichloroacetic acid in ice for 1 hour. After centrifugation at 12,000×g for 10 minutes at 4° C., the supernatants were removed and 1 ml cold acetone was added to the pellets followed by vortexing for 10 seconds. After one more washing with cold acetone, the pellets were dried at 37° C., and 39 μl PBS and 13 μl 4×NuPAGE LDS were added to the pellets with a final concentration of 5 mM DTT. Solubilized proteins were incubated at 65° C. for 20 minutes followed by incubation with a final concentration of 14 mM iodoacetamide for 45 minutes in the dark. 38 μl samples were loaded to 4-12% gradient SDS-PAGE for separation followed by Coomassie Blue staining. The gels were submitted to quantitative proteomics.
# (§2) For in-gel digestions, gels were stained with Coomassie Blue and were excised into 8 equal segments for control and irisin lanes. Gel pieces were destained and dehydrated with 100% acetonitrile, vacuumed dried, and digested in 25 mM HEPES (pH 8.5) with 500 ng sequencing grade trypsin (Promega) and incubated for an overnight at 37° C. (Shevchenko et al. (1996) Anal. Chem. 68:850-858). Digests were treated with 1% formic acid and purified using C18 Stage-Tips as previously described (Rappsilber et al. (2007) Nat. Protoc. 2:1896-1906). Peptides were eluted with 70% acetonitrile and 1% formic acid, then dried using a speedvac. Isobaric labeling of digested peptides was accomplished using 6-plex tandem mass tag (TMT) reagents (Thermo Fisher Scientific, Rockford, Ill.). Reagents, 5.0 mg, were dissolved in 252 μl acetonitrile (ACN) and 5 μl of the solution was added to the digested peptides dissolved in 25 μl of 200 mM HEPES, pH 8.5. After 1 hour at room temperature, the reaction was quenched by adding 1 μl of 5% hydroxylamine. Labeled peptides were combined and acidified prior to C18 Stage-Tips desalting.
# (§3) All LC-MS/MS experiments were performed on an Orbitrap Fusion™ Lumos mass spectrometer (Thermo Fisher Scientific, San Jose, Calif., USA) coupled with a Proxeon EASY-nLC™ 1200 LC pump (Thermo Fisher Scientific). Peptides were separated on a 100 μm inner diameter microcapillary column packed with 35 cm of Accucore™ C18 resin (1.8 μm, 100 Å, Thermo Fisher Scientific). […]
# [2] = biological target: T2, MLO-Y4 cell surface proteins (Mus musculus, UniProt Q3U1J4); assay: as above; type: binding; settings: co-precipitated protein Ddb1 (DDB1_MOUSE)
# T2 construct: endogenous in cells; host or cells: MLO-Y4
# T2 sequence (Q3U1J4 whole entry): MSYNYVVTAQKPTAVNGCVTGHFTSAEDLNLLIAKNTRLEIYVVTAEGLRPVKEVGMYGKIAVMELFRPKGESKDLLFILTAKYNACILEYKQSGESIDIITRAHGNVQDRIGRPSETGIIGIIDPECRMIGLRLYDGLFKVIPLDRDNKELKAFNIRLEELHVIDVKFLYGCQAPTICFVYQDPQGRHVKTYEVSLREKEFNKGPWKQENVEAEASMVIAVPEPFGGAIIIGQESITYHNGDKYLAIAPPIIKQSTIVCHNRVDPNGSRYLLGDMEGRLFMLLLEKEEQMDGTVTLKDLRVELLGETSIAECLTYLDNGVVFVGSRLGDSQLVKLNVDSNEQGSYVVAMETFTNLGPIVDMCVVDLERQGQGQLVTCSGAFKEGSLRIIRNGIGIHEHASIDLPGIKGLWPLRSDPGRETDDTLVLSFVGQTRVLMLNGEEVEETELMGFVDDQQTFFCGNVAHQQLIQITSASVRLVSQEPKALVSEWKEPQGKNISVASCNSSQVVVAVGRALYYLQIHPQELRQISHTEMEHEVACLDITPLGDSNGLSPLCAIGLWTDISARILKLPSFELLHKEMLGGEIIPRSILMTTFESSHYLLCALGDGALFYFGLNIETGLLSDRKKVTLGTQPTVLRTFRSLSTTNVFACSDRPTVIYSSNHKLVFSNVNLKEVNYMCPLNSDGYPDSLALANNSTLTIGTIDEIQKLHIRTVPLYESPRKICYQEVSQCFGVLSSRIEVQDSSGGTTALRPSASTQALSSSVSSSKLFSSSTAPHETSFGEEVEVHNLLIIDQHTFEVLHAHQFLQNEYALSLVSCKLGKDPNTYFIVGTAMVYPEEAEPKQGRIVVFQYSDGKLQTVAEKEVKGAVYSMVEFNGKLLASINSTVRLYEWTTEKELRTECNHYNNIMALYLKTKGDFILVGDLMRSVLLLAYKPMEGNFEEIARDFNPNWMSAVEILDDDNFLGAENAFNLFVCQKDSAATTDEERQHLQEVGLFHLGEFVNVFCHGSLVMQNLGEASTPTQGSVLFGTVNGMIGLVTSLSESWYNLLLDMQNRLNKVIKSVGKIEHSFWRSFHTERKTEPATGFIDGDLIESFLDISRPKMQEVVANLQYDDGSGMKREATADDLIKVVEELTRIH
# Protocol: as §1, §2, §3
molecule,measurement,setting,value
B1,TMT signal-to-noise ratio,[1],86.0306
same,irisin/adipsin TMT signal-to-noise ratio,[1],0.284
same,TMT signal-to-noise ratio,[2],149.943
same,irisin/adipsin TMT signal-to-noise ratio,[2],0.352
